Laboratory results taken from patent publication US20210388087A1.

Target: Human CD137 ECD (human)
Assay: Biacore SPR, vs parent H183/L072

Chain of Human CD137 ECD (human) (chain, as listed by the source limits assumed): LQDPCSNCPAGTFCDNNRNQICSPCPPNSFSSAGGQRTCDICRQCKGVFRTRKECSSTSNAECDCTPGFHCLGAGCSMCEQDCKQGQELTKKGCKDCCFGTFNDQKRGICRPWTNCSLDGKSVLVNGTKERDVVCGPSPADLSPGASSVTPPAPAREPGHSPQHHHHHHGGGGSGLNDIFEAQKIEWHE

| fold change of affinity | Binder |
| --- | --- |
| 0 fold | H183/L072 VL H34T (antibody, name in Kabat numbering, V domains shown) VH: QVQLVESGGGLVQPGRSLRLSCAASGFTFSNAWMHWVRQAPGKGLEWVAQIKDKGNAYAAYYAPSVKGRFTISRDDSKNSIYLQMNSLKTEDTAVYYCHYVHYASASTVLPAFGVDAWGQGTTVTVSS VL: DIVMTQSPLSLPVTPGEPASISCQASQELVHMNRNTYLTWYQQKPGQAPRLLIYKVSNRFPGVPDRFSGSGSGTDFTLKISRVEAEDVGVYYCAQGTSVPFTFGQGTKLEIK |
| 0 fold | H183/L072 VL L33K (antibody, name in Kabat numbering, V domains shown) VH: QVQLVESGGGLVQPGRSLRLSCAASGFTFSNAWMHWVRQAPGKGLEWVAQIKDKGNAYAAYYAPSVKGRFTISRDDSKNSIYLQMNSLKTEDTAVYYCHYVHYASASTVLPAFGVDAWGQGTTVTVSS VL: DIVMTQSPLSLPVTPGEPASISCQASQELVHMNRNTYKHWYQQKPGQAPRLLIYKVSNRFPGVPDRFSGSGSGTDFTLKISRVEAEDVGVYYCAQGTSVPFTFGQGTKLEIK |
| 0 fold | H183/L072 VL T31H (antibody, name in Kabat numbering, V domains shown) VH: QVQLVESGGGLVQPGRSLRLSCAASGFTFSNAWMHWVRQAPGKGLEWVAQIKDKGNAYAAYYAPSVKGRFTISRDDSKNSIYLQMNSLKTEDTAVYYCHYVHYASASTVLPAFGVDAWGQGTTVTVSS VL: DIVMTQSPLSLPVTPGEPASISCQASQELVHMNRNHYLHWYQQKPGQAPRLLIYKVSNRFPGVPDRFSGSGSGTDFTLKISRVEAEDVGVYYCAQGTSVPFTFGQGTKLEIK |
| 0 fold | H183/L072 VL Q24E (antibody, name in Kabat numbering, V domains shown) VH: QVQLVESGGGLVQPGRSLRLSCAASGFTFSNAWMHWVRQAPGKGLEWVAQIKDKGNAYAAYYAPSVKGRFTISRDDSKNSIYLQMNSLKTEDTAVYYCHYVHYASASTVLPAFGVDAWGQGTTVTVSS VL: DIVMTQSPLSLPVTPGEPASISCEASQELVHMNRNTYLHWYQQKPGQAPRLLIYKVSNRFPGVPDRFSGSGSGTDFTLKISRVEAEDVGVYYCAQGTSVPFTFGQGTKLEIK |
| 0 fold | H183/L072 VL H34D (antibody, name in Kabat numbering, V domains shown) VH: QVQLVESGGGLVQPGRSLRLSCAASGFTFSNAWMHWVRQAPGKGLEWVAQIKDKGNAYAAYYAPSVKGRFTISRDDSKNSIYLQMNSLKTEDTAVYYCHYVHYASASTVLPAFGVDAWGQGTTVTVSS VL: DIVMTQSPLSLPVTPGEPASISCQASQELVHMNRNTYLDWYQQKPGQAPRLLIYKVSNRFPGVPDRFSGSGSGTDFTLKISRVEAEDVGVYYCAQGTSVPFTFGQGTKLEIK |
| 0 fold | H183/L072 VL Y32D (antibody, name in Kabat numbering, V domains shown) VH: QVQLVESGGGLVQPGRSLRLSCAASGFTFSNAWMHWVRQAPGKGLEWVAQIKDKGNAYAAYYAPSVKGRFTISRDDSKNSIYLQMNSLKTEDTAVYYCHYVHYASASTVLPAFGVDAWGQGTTVTVSS VL: DIVMTQSPLSLPVTPGEPASISCQASQELVHMNRNTDLHWYQQKPGQAPRLLIYKVSNRFPGVPDRFSGSGSGTDFTLKISRVEAEDVGVYYCAQGTSVPFTFGQGTKLEIK |
| 0 fold | H183/L072 VL L33D (antibody, name in Kabat numbering, V domains shown) VH: QVQLVESGGGLVQPGRSLRLSCAASGFTFSNAWMHWVRQAPGKGLEWVAQIKDKGNAYAAYYAPSVKGRFTISRDDSKNSIYLQMNSLKTEDTAVYYCHYVHYASASTVLPAFGVDAWGQGTTVTVSS VL: DIVMTQSPLSLPVTPGEPASISCQASQELVHMNRNTYDHWYQQKPGQAPRLLIYKVSNRFPGVPDRFSGSGSGTDFTLKISRVEAEDVGVYYCAQGTSVPFTFGQGTKLEIK |
| 0 fold | H183/L072 VL A25K (antibody, name in Kabat numbering, V domains shown) VH: QVQLVESGGGLVQPGRSLRLSCAASGFTFSNAWMHWVRQAPGKGLEWVAQIKDKGNAYAAYYAPSVKGRFTISRDDSKNSIYLQMNSLKTEDTAVYYCHYVHYASASTVLPAFGVDAWGQGTTVTVSS VL: DIVMTQSPLSLPVTPGEPASISCQKSQELVHMNRNTYLHWYQQKPGQAPRLLIYKVSNRFPGVPDRFSGSGSGTDFTLKISRVEAEDVGVYYCAQGTSVPFTFGQGTKLEIK |

The next lines start with the binder.

| Binder | fold change of affinity |
| --- | --- |
| H183/L072 VL Y32K (antibody, name in Kabat numbering, V domains shown) VH: QVQLVESGGGLVQPGRSLRLSCAASGFTFSNAWMHWVRQAPGKGLEWVAQIKDKGNAYAAYYAPSVKGRFTISRDDSKNSIYLQMNSLKTEDTAVYYCHYVHYASASTVLPAFGVDAWGQGTTVTVSS VL: DIVMTQSPLSLPVTPGEPASISCQASQELVHMNRNTKLHWYQQKPGQAPRLLIYKVSNRFPGVPDRFSGSGSGTDFTLKISRVEAEDVGVYYCAQGTSVPFTFGQGTKLEIK | 0 fold |
| H183/L072 VL N28D (antibody, name in Kabat numbering, V domains shown) VH: QVQLVESGGGLVQPGRSLRLSCAASGFTFSNAWMHWVRQAPGKGLEWVAQIKDKGNAYAAYYAPSVKGRFTISRDDSKNSIYLQMNSLKTEDTAVYYCHYVHYASASTVLPAFGVDAWGQGTTVTVSS VL: DIVMTQSPLSLPVTPGEPASISCQASQELVHMDRNTYLHWYQQKPGQAPRLLIYKVSNRFPGVPDRFSGSGSGTDFTLKISRVEAEDVGVYYCAQGTSVPFTFGQGTKLEIK | 0 fold |
| H183/L072 VL Y32E (antibody, name in Kabat numbering, V domains shown) VH: QVQLVESGGGLVQPGRSLRLSCAASGFTFSNAWMHWVRQAPGKGLEWVAQIKDKGNAYAAYYAPSVKGRFTISRDDSKNSIYLQMNSLKTEDTAVYYCHYVHYASASTVLPAFGVDAWGQGTTVTVSS VL: DIVMTQSPLSLPVTPGEPASISCQASQELVHMNRNTELHWYQQKPGQAPRLLIYKVSNRFPGVPDRFSGSGSGTDFTLKISRVEAEDVGVYYCAQGTSVPFTFGQGTKLEIK | 0 fold |
| H183/L072 VL A25H (antibody, name in Kabat numbering, V domains shown) VH: QVQLVESGGGLVQPGRSLRLSCAASGFTFSNAWMHWVRQAPGKGLEWVAQIKDKGNAYAAYYAPSVKGRFTISRDDSKNSIYLQMNSLKTEDTAVYYCHYVHYASASTVLPAFGVDAWGQGTTVTVSS VL: DIVMTQSPLSLPVTPGEPASISCQHSQELVHMNRNTYLHWYQQKPGQAPRLLIYKVSNRFPGVPDRFSGSGSGTDFTLKISRVEAEDVGVYYCAQGTSVPFTFGQGTKLEIK | 0 fold |
| H183/L072 VL A25E (antibody, name in Kabat numbering, V domains shown) VH: QVQLVESGGGLVQPGRSLRLSCAASGFTFSNAWMHWVRQAPGKGLEWVAQIKDKGNAYAAYYAPSVKGRFTISRDDSKNSIYLQMNSLKTEDTAVYYCHYVHYASASTVLPAFGVDAWGQGTTVTVSS VL: DIVMTQSPLSLPVTPGEPASISCQESQELVHMNRNTYLHWYQQKPGQAPRLLIYKVSNRFPGVPDRFSGSGSGTDFTLKISRVEAEDVGVYYCAQGTSVPFTFGQGTKLEIK | 0 fold |
| H183/L072 VL A25D (antibody, name in Kabat numbering, V domains shown) VH: QVQLVESGGGLVQPGRSLRLSCAASGFTFSNAWMHWVRQAPGKGLEWVAQIKDKGNAYAAYYAPSVKGRFTISRDDSKNSIYLQMNSLKTEDTAVYYCHYVHYASASTVLPAFGVDAWGQGTTVTVSS VL: DIVMTQSPLSLPVTPGEPASISCQDSQELVHMNRNTYLHWYQQKPGQAPRLLIYKVSNRFPGVPDRFSGSGSGTDFTLKISRVEAEDVGVYYCAQGTSVPFTFGQGTKLEIK | 0 fold |
| H183/L072 VL H34E (antibody, name in Kabat numbering, V domains shown) VH: QVQLVESGGGLVQPGRSLRLSCAASGFTFSNAWMHWVRQAPGKGLEWVAQIKDKGNAYAAYYAPSVKGRFTISRDDSKNSIYLQMNSLKTEDTAVYYCHYVHYASASTVLPAFGVDAWGQGTTVTVSS VL: DIVMTQSPLSLPVTPGEPASISCQASQELVHMNRNTYLEWYQQKPGQAPRLLIYKVSNRFPGVPDRFSGSGSGTDFTLKISRVEAEDVGVYYCAQGTSVPFTFGQGTKLEIK | 0 fold |
